From patent US20230134571A1 (INTERNATIONAL AIDS VACCINE INITIATIVE, published 2023) come the findings set out here.

What all share (test): cell-based or functional assay
Assay [1] deals with HIV Env, isolate BF1266.431a (HIV).
Assay [2] addresses HIV Env, isolate WEAU_d15_410_5017 (HIV).
Assay [3] concerns the target HIV Env, isolate 6480.v4.c25 (HIV).
The target in assay [4] is HIV Env, isolate Ce0393_C3 (HIV).
The target of assay [5] is HIV Env, isolate Ce2010_F5 (HIV).
In assay [6] the target is HIV Env, isolate Ce2060_G9 (HIV).
Assay [7] deals with HIV Env, isolate T278-50 (HIV).
The target of assay [8] is HIV Env, isolate ZM249M.PL1 (HIV).
Assay [9] has as its target HIV Env, isolate CNE20 (HIV).
Assay [10] addresses HIV Env, isolate X1632_S2_B10 (HIV).
Assay [11] concerns the target HIV Env, isolate 7030102001E5(Rev-) (HIV).
Assay [12] has as its target HIV Env, isolate REJO4541.67 (HIV).
Assay [13] deals with HIV Env, isolate CAP45.2.00.G3 (HIV).
In assay [14] the target is HIV Env, isolate CNE58 (HIV).
Assay [15] has as its target HIV Env, isolate P1981_C5_3 (HIV).
Assay [16] addresses HIV Env, isolate ZM197M.PB7 (HIV).
For assay [17], the target named is HIV Env, isolate ZM109F.PB4 (HIV).
Assay [18] has as its target HIV Env, isolate RHPA4259.7 (HIV).
In assay [19] the target is HIV Env, isolate CNE19 (HIV).
In assay [20] the target is HIV Env, isolate CAP210.2.00.E8 (HIV).
For assay [21], the target named is HIV Env, isolate 3817.v2.c59 (HIV).
Assay [22] deals with HIV Env, isolate CNE53 (HIV).
Assay [23] has as its target HIV Env, isolate 249MB10 (HIV).

B1: ePGDM13 (antibody, V domains shown)
VH: QAQLVQSGPEVRKPGTSVKVSCKNPGNTLTTYDLHWVRQVPGQGLQWMGWISHEGDKKVIVERFKAKVTIDWDRSTNTAYLQLSGLTSEDTAVYYCAKGSKHRLRDYALYDEDGALNWAVDVDYLANLEFWGQGTAVTVSS
VL: DIVLTQSPLSLSVTPGESASISCKSSHSLQHGDRNNYLAWYVQKPGRSPQLLLDLASERASGVPDRFSGSGSEKDFTLKISRVETEDVGTYYCMQGRESPWTFGQGTKVDIK
Consider B1, for which the “IC80 (µg/ml) with constrains” value in [1] was 0.016 µg/mL; in [2] it was 0.012 µg/mL; in assay [3], over 100 µg/mL; in assay [4], 0.022 µg/mL; in assay [5], over 100 µg/mL; in [6], 0.071 µg/mL. The “IC80 (µg/ml) with constrains” value in assay [7] is 6.4 µg/mL; in assay [8], 0.056 µg/mL; in assay [9] it was 0.015 µg/mL; in assay [10] it was 0.013 µg/mL; in [11], over 100 µg/mL; in assay [12], 0.008 µg/mL. Besides, the “IC80 (µg/ml) with constrains” value turned out to be 0.007 µg/mL in assay [13]; 0.014 µg/mL in [14]; 1.28 µg/mL in assay [15]; 0.24 µg/mL in assay [16]; 0.196 µg/mL in assay [17]; 1.43 µg/mL in assay [18]. In addition, the “IC80 (µg/ml) with constrains” value came to 0.013 µg/mL in assay [19]; 0.538 µg/mL in assay [20]; 55.9 µg/mL in assay [21]; 0.059 µg/mL in [22]; 0.13 µg/mL in assay [23].

B2: PGDM1400 (antibody, V domains shown)
VH: QVHLTQSGPEVRKPGTSVKVSCKAPGNTLKTYDLHWVRSVPGQGLQWMGWISHEGDKKVIVERFKAKVTIDWDRSTNTAYLQLSGLTSGDTAVYYCAKGSKHRLRDYALYDDDGALNWAVDVDYLSNLEFWGQGTAVTVSS
VL: DFVLTQSPHSLSVTPGESASISCKSSHSLIHGDRNNYLAWYVQKPGRSPQLLIYLASSRASGVPDRFSGSGSDKDFTLKISRVETEDVGTYYCMQGRESPWTFGQGTKVDIK
With B2, the “IC80 (µg/ml) with constrains” value in assay [1] was 0.024 µg/mL; in assay [2] it was 0.3 µg/mL; in assay [3] it was over 100 µg/mL; in assay [4] it was 0.037 µg/mL; in assay [5] it was over 100 µg/mL; in [6] it was 0.099 µg/mL. Also, the “IC80 (µg/ml) with constrains” value in assay [7] was 21.7 µg/mL; in [8], 0.101 µg/mL; in assay [9], 0.021 µg/mL; in assay [10], 0.135 µg/mL; in [11], over 100 µg/mL; in assay [12], 0.017 µg/mL. For the same molecule, the “IC80 (µg/ml) with constrains” value was found to be 0.005 µg/mL in assay [13]; 0.01 µg/mL in assay [14]; 75.6 µg/mL in assay [15]; 0.282 µg/mL in [16]; 0.39 µg/mL in [17]; 1.96 µg/mL in assay [18]. Besides, the “IC80 (µg/ml) with constrains” value in assay [19] was 0.019 µg/mL; in assay [20], 1.32 µg/mL; in [21], over 100 µg/mL; in assay [22] it was 0.105 µg/mL; in assay [23], 0.085 µg/mL.
